Test results reported in patent publication US20060045881A1, “Anti-cancer vaccines” (Board of Regents, The University of Texas System, priority 2004, published 2006).

Target: HLA-A2.1 heavy chain with I125-labeled beta2-microglobulin (heterotrimer complex assay) (human)
Assay: dissociation of I125-labeled beta2-microglobulin from heavy chain/peptide/beta2m complex, HPLC gel filtration

HTLV-1 Tax peptide (aa 11-19) (from UniProt P03409 11-19) (peptide; other documents disagree on this pair)
T1/2 (binding half-life): 133 h
